The record followed here is patent publication US8445444B2, “Compositions and methods for diagnosing, treating, and preventing prostate conditions” (Phigenix, Inc., priority 2007, dated 2013).

Holding throughout (assay type): cell-based, human
The test system of series [1] is DU145. Put plainly: MTT cell viability assay. Here is the method:
(§1) MTT Cell Viability Assay: To examine the effects of DEFB1 on cell growth, metabolic 3-[4,5-dimethylthiazol-2-yl]-2,5 diphenyl tetrazolium bromide (MTT) assays were performed. PC3, DU145 and LNCaP cells co-transfected with pVgRXR plasmid and pIND/DEFB1 construct or empty pIND vector were seeded onto a 96-well plate at 1-5×10^3 cells per well. Twenty-four hours after seeding, fresh growth medium was added containing 10 μM Ponasterone A daily to induce DEFB1 expression for 24-, 48- and 72 hours after which the MTT assay was performed according to the manufacturer's instructions (Promega). Reactions were performed three times in triplicate.
(§2) MTT Cytotoxicity Assay: DU145, PC3 and LNCaP cells (1×105) were transfected with 0.5 μg of the PAX2 siRNA pool or control siRNA pool using Codebreaker transfection reagent according to the manufacturer's protocol (Promega). Next, cell suspensions were diluted and seeded onto a 96-well plate at 1-5×10^3 cells per well and allowed to grow for 2-, 4- or 6 days. After culture, cell viability was determined by measuring the conversion of 3-[4,5-dimethylthiazol-2-yl]-2,5 diphenyl tetrazolium bromide, MTT (Promega), to a colored formazan product. Absorbance was read at 540 nm on a scanning multiwell spectrophotometer.
(§3) MTT cell viability assay: To examine the effects of hBD-1 on cell growth, metabolic 3-[4,5-dimethylthiazol-2-yl]-2,5-diphenyl tetrazolium bromide (MTT) assay was performed. DU145, LNCaP, PC3 and PC3/AR+ cells co-transfected with pvgRXR plasmid and pIND/hBD-1 construct or control pvgRXR plasmid were seeded onto a 96-well plate at 1-5×10^3 cells per well. Twenty-four hours after seeding, fresh growth medium was added containing 10 μM Pon A daily to induce hBD-1 expression for 24, 48 and 72 h after which the MTT assay was performed according to the manufacturer's instructions (Promega). Reactions were performed three times in triplicate.
(§4) MTT cytotoxicity assay: DU145, PC3 and LNCaP cell suspensions were diluted and seeded onto a 96-well plate at 1-5×10^3 cells per well. Next the cells were transfected, according to the manufacturer's protocol (Promega), with 5 pg/cell of the PAX2 siRNA pool, control siRNA pool, or the Codebreaker transfection reagent alone. All cells were allowed to grow for 2-, 4- or 6 days after treatment. Cell viability was then determined by measuring the conversion of 3-[4,5-dimethylthiazol-2-yl]-2,5 diphenyl tetrazolium bromide, MTT (Promega) to a colored formazan product. Absorbance was read at 540 nm on a scanning multi-well spectrophotometer.

Series [2] concerns LNCaP. The experiment in a line: MTT cell viability assay. Particulars: DEFB1 (hBD-1) induction 24-72 h. The procedure:
as §1, §2, §3, §4
On the technique in general: Formazan colour is commonly taken as a measure of viable cells.

Series [3] concerns PC3. The experiment in a line: MTT cell viability assay. The procedure:
as §1, §2, §3, §4

For series [4], the system named is DU145. The experiment in a line: Phase contrast microscopy of cell growth. Particulars: DU145, 48 h DEFB1 induction. The procedure: (§5) Microscopic Analysis: Cell morphology was analyzed by phase contrast microscopy. DU145, PC3 and LNCaP cells containing no vector, empty plasmid or DEFB1 plasmid were seeded onto 6 well culture plates (BD Falcon, USA). The following day plasmid-containing cells were induced for a period of 48 h with media containing 10 μM Ponasterone A, while control cells received fresh media. The cells were then viewed under an inverted Zeiss IM 35 microscope (Carl Zeiss, Germany). Phase contrast pictures of a field of cells were obtained using the SPOT Insight Mosaic 4.2 camera (Diagnostic Instruments, USA). Cells were examined by phase contrast microscopy under 32× magnification and digital images were stored as uncompressed TIFF files and exported into Photoshop CS software (Adobe Systems, San Jose, Calif.) for image processing and hard copy presentation.
(§6) Phase Contrast Microscopy: The effect of PAX2 knock-down on cell growth was analyzed by phase contrast microscopy. Here, 1-2×10^4 cells were seeded onto 6 well culture plates (BD Falcon, USA). The following day cells were treated with media only, negative control non-specific siRNA or PAX2 siRNA and allowed to incubate for six days. The cells were then viewed under an inverted Zeiss IM 35 microscope (Carl Zeiss, Germany) at 32× magnification. Phase contrast pictures of a field of cells were obtained using the SPOT Insight Mosaic 4.2 camera (Diagnostic Instruments, USA).
(§7) Phase contrast microscopy: The effect of PAX2 knockdown on cell number was analyzed by phase contrast microscopy. Here, 1-2×10^4 cells were seeded overnight onto six-well culture plates (BD Falcon, USA). Next the cells were treated with media only, negative control non-specific siRNA or PAX2 siRNA and allowed to incubate for 6 days. The cells were then viewed under an inverted Zeiss IM 35 microscope (Carl Zeiss, Germany). Phase contrast pictures of a field of cells were obtained using the SPOT Insight Mosaic 4.2 camera (Diagnostic Instruments, USA).

Series [5] has as its system LNCaP. The experiment in a line: Phase contrast microscopy of cell growth. Particulars: 48 h DEFB1 induction. The procedure:
as §5, §6, §7

The subject of series [6] is PC3. The experiment in a line: Phase contrast microscopy of cell growth. Particulars: PC3, 48 h DEFB1 induction. Here is the method: as §5, §6, §7

On to “DEFB1: human beta defensin-1 expressed from the ecdysone inducible pIND/DEFB1 construct, induced with Ponasterone A (DHYNCVSSGGQCLYSACPIFTKIQGTCYRGKAKCCK; UniProt P60022 33-68, looked up)”, for which the relative cell viability in series [1] (DU145, 24 h DEFB1 (hBD-1) induction, 10 μM Ponasterone A) is 72%; in series [1] (DU145, 48 h DEFB1 (hBD-1) induction) it was 49%; in series [1] (DU145, 72 h DEFB1 (hBD-1) induction) it was 44%; in series [3] (PC3, 24 h DEFB1 (hBD-1) induction) it was 56%; in series [3] (PC3, 48 h DEFB1 (hBD-1) induction), 37%; in series [3] (PC3, 72 h DEFB1 (hBD-1) induction) it was 29%. Further, the “effect on cell viability” value in series [2] is “no significant effect”. Also, the cell number entry in series [4] and in series [6] was “significant reduction in cell number” each time. Also, the cell proliferation entry in series [5] is listed as “no effect on cell proliferation”.
